For three substances, Km and kcat results are on record in paper PMC9411544, “Catalytic innovation underlies independent recruitment of polyketide synthases in cocaine and hyoscyamine biosynthesis” (Nature Communications, 2022).

In general, Km refers to the substrate concentration at which the rate is half of its maximum. By kcat is commonly meant the number of substrate molecules converted per active site and unit of time at saturation.

The data set deals with CC(C)(COP(=O)(O)OP(=O)(O)OC[C@H]1O[C@@H](n2cnc3c(N)ncnc32)[C@H](O)[C@@H]1OP(=O)(O)O)[C@@H](O)C(=O)NCCC(=O)NCCSC(=O)CC(=O)O. The data set is described as follows: purified protein. The following applies: sole substrate, 100 mM potassium phosphate, pH 8.0, 30 °C, 20-1000 μM malonyl-CoA.

As to AaPYKS1 (Anisodus acutangulus), for the setting “1 ng/μL enzyme, 5 min”, the Km came to 70.38 µM and the kcat was 2.24 s⁻¹.

As for EnPKS1 (Erythroxylum novogranatense), under “1 ng/μL enzyme, 5 min”, the Km was 112.90 µM and the kcat is 1.89 s⁻¹.

With EnPKS2 (Erythroxylum novogranatense), where the note is “2 ng/μL enzyme, 8 min”, the Km worked out at 50.54 µM and the kcat stood at 0.45 s⁻¹.
